Assay [1] deals with T1, GHRH receptor (membrane receptors of human anterior pituitary cells) (human, UniProt Q02643 23-423).
T1 construct: whole, on cells; Native receptor in a membrane fraction of purchased normal human pituitaries, not intact cells; also called hGHRH receptor; human pituitary membrane homogenates
T1 sequence (looked up): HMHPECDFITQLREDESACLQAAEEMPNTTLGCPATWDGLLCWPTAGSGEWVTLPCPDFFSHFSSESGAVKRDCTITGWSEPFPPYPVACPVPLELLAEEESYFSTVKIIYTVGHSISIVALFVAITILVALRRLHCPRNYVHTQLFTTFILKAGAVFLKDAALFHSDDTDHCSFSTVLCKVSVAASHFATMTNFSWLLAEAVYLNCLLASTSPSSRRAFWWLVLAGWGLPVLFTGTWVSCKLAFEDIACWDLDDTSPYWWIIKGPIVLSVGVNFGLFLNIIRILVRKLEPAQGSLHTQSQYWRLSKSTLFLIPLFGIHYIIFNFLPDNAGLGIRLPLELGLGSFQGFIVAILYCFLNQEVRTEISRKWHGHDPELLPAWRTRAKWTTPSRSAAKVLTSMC
As to the kind of experiment: competition with [His1,125I-Tyr10,Nle27]hGHRH(1-32)NH2, human pituitary membranes. An excerpt: Normal human pituitaries were purchased from the National Hormone and Peptide Program (A. F. Parlow, Los Angeles, County Harbor—UCLA Medical Center, Torrance, Calif.).

Assay [2] addresses T2, GHRH receptor (membrane receptors of human anterior pituitary cells) (human) (UniProt Q02643).
T2 sequence (looked up): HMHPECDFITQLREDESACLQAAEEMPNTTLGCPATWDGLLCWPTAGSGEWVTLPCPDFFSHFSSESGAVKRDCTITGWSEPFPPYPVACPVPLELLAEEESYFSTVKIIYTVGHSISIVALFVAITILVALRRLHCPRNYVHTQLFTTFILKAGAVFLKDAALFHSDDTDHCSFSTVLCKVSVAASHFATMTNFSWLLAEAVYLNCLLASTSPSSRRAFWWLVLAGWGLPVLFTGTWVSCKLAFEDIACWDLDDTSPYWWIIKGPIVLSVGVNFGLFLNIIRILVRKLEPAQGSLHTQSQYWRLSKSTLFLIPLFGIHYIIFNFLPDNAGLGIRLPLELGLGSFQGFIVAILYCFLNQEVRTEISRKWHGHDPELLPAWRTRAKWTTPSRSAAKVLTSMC
The experiment in a line: competition with 125I-[His1,Nle27]hGHRH(1-32)NH2, human pituitary membranes.

The target in assay [3] is T2, GHRH receptor (membrane receptors of human anterior pituitary cells) (human). The experiment in a line: competition with 125I-JV-1-42, human pituitary membranes.

Non-standard residues stand in square brackets, D forms with d. *: point of attachment. Desaminotyrosyl = O=C(CCc1ccc(O)cc1)*; hArg = N=C(N)NCCCC[C@H](N)C(=O)O; Nle = CCCC[C@H](N)C(=O)O; Orn = NCCC[C@H](N)C(=O)O; Abu = CC[C@H](N)C(=O)O; Aoc = NCCCCCCCC(=O)O; Ava = NCCCCC(=O)O

We go through five molecules from patent US20140179604A1 (U S A REPRESENTED BY THE DEPARTMENT OF VETERANS AFFAIRS, published 2014).

The IC50 is the concentration at which inhibition is half-maximal. A higher IC50 goes with lower potency.

B1: P-23252 [Dat^1-D-Ala^2, Orn^12, Abu^15, Orn^21, Nle^27, Asp^28, Har^30]hGHRH(1-30)NH2 (peptide)
peptide: [Desaminotyrosyl][dA]DAIFTNSYR[Orn]VL[Abu]QLSAR[Orn]LLQDI[Nle]DR[hArg]-NH2
SMILES: CCCC[C@H](NC(=O)[C@@H](NC(=O)[C@H](CC(=O)O)NC(=O)[C@H](CCC(N)=O)NC(=O)[C@H](CC(C)C)NC(=O)[C@H](CC(C)C)NC(=O)[C@H](CCCN)NC(=O)[C@H](CCCNC(=N)N)NC(=O)[C@H](C)NC(=O)[C@H](CO)NC(=O)[C@H](CC(C)C)NC(=O)[C@H](CCC(N)=O)NC(=O)[C@H](CC)NC(=O)[C@H](CC(C)C)NC(=O)[C@@H](NC(=O)[C@H](CCCN)NC(=O)[C@H](CCCNC(=N)N)NC(=O)[C@H](Cc1ccc(O)cc1)NC(=O)[C@H](CO)NC(=O)[C@H](CC(N)=O)NC(=O)[C@@H](NC(=O)[C@H](Cc1ccccc1)NC(=O)[C@@H](NC(=O)[C@H](C)NC(=O)[C@H](CC(=O)O)NC(=O)[C@@H](C)NC(=O)CCc1ccc(O)cc1)[C@@H](C)CC)[C@@H](C)O)C(C)C)[C@@H](C)CC)C(=O)N[C@@H](CC(=O)O)C(=O)N[C@@H](CCCNC(=N)N)C(=O)N[C@@H](CCCCNC(=N)N)C(N)=O
notes: also called Peptide 23252
As for B1, in assay [1], the IC50 was determined as 0.14 nM, the “Relative affinity (Binding potency) vs GHRH” value (from here on “Relative affinity … vs GHRH”) was 42.3 GHRH(1-29) = 1 and the “Relative affinity (Binding potency) vs JI-38” value (“Relative affinity … vs JI-38” below) was 13.9 JI-38 = 1.

B2: P-21304 [Dat^1, D-Ala^2, Gln^8, Orn^12, Abu^15, Orn^21, Nle^27, Asp^28, Amc^30]hGHRH(1-30)NH2 (peptide)
peptide: [Desaminotyrosyl][dA]DAIFTQSYR[Orn]VL[Abu]QLSAR[Orn]LLQDI[Nle]DR[Aoc]-NH2
SMILES: CCCC[C@H](NC(=O)[C@@H](NC(=O)[C@H](CC(=O)O)NC(=O)[C@H](CCC(N)=O)NC(=O)[C@H](CC(C)C)NC(=O)[C@H](CC(C)C)NC(=O)[C@H](CCCN)NC(=O)[C@H](CCCNC(=N)N)NC(=O)[C@H](C)NC(=O)[C@H](CO)NC(=O)[C@H](CC(C)C)NC(=O)[C@H](CCC(N)=O)NC(=O)[C@H](CC)NC(=O)[C@H](CC(C)C)NC(=O)[C@@H](NC(=O)[C@H](CCCN)NC(=O)[C@H](CCCNC(=N)N)NC(=O)[C@H](Cc1ccc(O)cc1)NC(=O)[C@H](CO)NC(=O)[C@H](CCC(N)=O)NC(=O)[C@@H](NC(=O)[C@H](Cc1ccccc1)NC(=O)[C@@H](NC(=O)[C@H](C)NC(=O)[C@H](CC(=O)O)NC(=O)[C@@H](C)NC(=O)CCc1ccc(O)cc1)[C@@H](C)CC)[C@@H](C)O)C(C)C)[C@@H](C)CC)C(=O)N[C@@H](CC(=O)O)C(=O)N[C@@H](CCCNC(=N)N)C(=O)NCCCCCCCC(N)=O
notes: also called Peptide 21304
In the case of B2, in assay [1], the IC50 turned out to be 0.08 nM, the “Relative affinity … vs GHRH” value was 74 GHRH(1-29) = 1 and the “Relative affinity … vs JI-38” value turned out to be 24.4 JI-38 = 1.

B3: P-23254 [Dat^1, D-Ala^2, Thr^8, Orn^12, Abu^15, Orn^21, Nle^27, Asp^28, Har^30]hGHRH(1-30)NH2 (peptide)
peptide: [Desaminotyrosyl][dA]DAIFTTSYR[Orn]VL[Abu]QLSAR[Orn]LLQDI[Nle]DR[hArg]-NH2
SMILES: CCCC[C@H](NC(=O)[C@@H](NC(=O)[C@H](CC(=O)O)NC(=O)[C@H](CCC(N)=O)NC(=O)[C@H](CC(C)C)NC(=O)[C@H](CC(C)C)NC(=O)[C@H](CCCN)NC(=O)[C@H](CCCNC(=N)N)NC(=O)[C@H](C)NC(=O)[C@H](CO)NC(=O)[C@H](CC(C)C)NC(=O)[C@H](CCC(N)=O)NC(=O)[C@H](CC)NC(=O)[C@H](CC(C)C)NC(=O)[C@@H](NC(=O)[C@H](CCCN)NC(=O)[C@H](CCCNC(=N)N)NC(=O)[C@H](Cc1ccc(O)cc1)NC(=O)[C@H](CO)NC(=O)[C@@H](NC(=O)[C@@H](NC(=O)[C@H](Cc1ccccc1)NC(=O)[C@@H](NC(=O)[C@H](C)NC(=O)[C@H](CC(=O)O)NC(=O)[C@@H](C)NC(=O)CCc1ccc(O)cc1)[C@@H](C)CC)[C@@H](C)O)[C@@H](C)O)C(C)C)[C@@H](C)CC)C(=O)N[C@@H](CC(=O)O)C(=O)N[C@@H](CCCNC(=N)N)C(=O)N[C@@H](CCCCNC(=N)N)C(N)=O
notes: also called Peptide 23254
As for B3, in assay [1], the IC50 amounted to 0.07 nM, the “Relative affinity … vs GHRH” value was 84.5 GHRH(1-29) = 1 and the “Relative affinity … vs JI-38” value came out at 27.8 JI-38 = 1.

B4: P-27407 [Dat^1, Gln^8, Orn^12, Abu^15, Orn^21, Nle^27, Asp^28]hGHRH(1-29)NH-CH3 (peptide, from a related filing)
peptide: [Desaminotyrosyl]ADAIFTQSYR[Orn]VL[Abu]QLSAR[Orn]LLQDI[Nle]DR-NHMe
SMILES: CCCC[C@H](NC(=O)[C@@H](NC(=O)[C@H](CC(=O)O)NC(=O)[C@H](CCC(N)=O)NC(=O)[C@H](CC(C)C)NC(=O)[C@H](CC(C)C)NC(=O)[C@H](CCCN)NC(=O)[C@H](CCCNC(=N)N)NC(=O)[C@H](C)NC(=O)[C@H](CO)NC(=O)[C@H](CC(C)C)NC(=O)[C@H](CCC(N)=O)NC(=O)[C@H](CC)NC(=O)[C@H](CC(C)C)NC(=O)[C@@H](NC(=O)[C@H](CCCN)NC(=O)[C@H](CCCNC(=N)N)NC(=O)[C@H](Cc1ccc(O)cc1)NC(=O)[C@H](CO)NC(=O)[C@H](CCC(N)=O)NC(=O)[C@@H](NC(=O)[C@H](Cc1ccccc1)NC(=O)[C@@H](NC(=O)[C@H](C)NC(=O)[C@H](CC(=O)O)NC(=O)[C@H](C)NC(=O)CCc1ccc(O)cc1)[C@@H](C)CC)[C@@H](C)O)C(C)C)[C@@H](C)CC)C(=O)N[C@@H](CC(=O)O)C(=O)N[C@@H](CCCNC(=N)N)C(=O)NC
In assay [2], B4 had an IC50 of 5.01 nM, a Relative affinity (Binding potency) compared to JI-38 of 0.54 JI-38 = 1 and a Relative affinity (Binding potency) compared to hGHRH(1-29) (hGHRH(1-29)NH2 = 1) of 1.52. In assay [3], this molecule displayed a concentration for half-maximal inhibition (IC50) of 3 nM and a Relative affinity (Binding potency) vs JI-38 of 1.45 JI-38 = 1.

B5: P-22327 [Dat^1, Gln^8, Orn^12, Abu^15, Orn^21, Nle^27, Asp^28, Apa^30]hGHRH(1-30)NH2 (peptide, from a related filing)
peptide: [Desaminotyrosyl]ADAIFTQSYR[Orn]VL[Abu]QLSAR[Orn]LLQDI[Nle]DR[Ava]-NH2
SMILES: CCCC[C@H](NC(=O)[C@@H](NC(=O)[C@H](CC(=O)O)NC(=O)[C@H](CCC(N)=O)NC(=O)[C@H](CC(C)C)NC(=O)[C@H](CC(C)C)NC(=O)[C@H](CCCN)NC(=O)[C@H](CCCNC(=N)N)NC(=O)[C@H](C)NC(=O)[C@H](CO)NC(=O)[C@H](CC(C)C)NC(=O)[C@H](CCC(N)=O)NC(=O)[C@H](CC)NC(=O)[C@H](CC(C)C)NC(=O)[C@@H](NC(=O)[C@H](CCCN)NC(=O)[C@H](CCCNC(=N)N)NC(=O)[C@H](Cc1ccc(O)cc1)NC(=O)[C@H](CO)NC(=O)[C@H](CCC(N)=O)NC(=O)[C@@H](NC(=O)[C@H](Cc1ccccc1)NC(=O)[C@@H](NC(=O)[C@H](C)NC(=O)[C@H](CC(=O)O)NC(=O)[C@H](C)NC(=O)CCc1ccc(O)cc1)[C@@H](C)CC)[C@@H](C)O)C(C)C)[C@@H](C)CC)C(=O)N[C@@H](CC(=O)O)C(=O)N[C@@H](CCCNC(=N)N)C(=O)NCCCCC(N)=O
In assay [2], B5 showed an IC50 of 2.04 nM, a Relative affinity (Binding potency) compared to JI-38 of 1.34 JI-38 = 1 and a Relative affinity (Binding potency) compared to hGHRH(1-29) (hGHRH(1-29)NH2 = 1) of 3.75. In assay [3], this molecule displayed a half-maximal inhibitory concentration (IC50) of 1.99 nM and a Relative affinity (Binding potency) vs JI-38 of 2.18 JI-38 = 1.
